# Results as given in patent publication US20250276090A1, “Methods and Compositions for Genetically Modifying a Cell” (Intellia Therapeutics, Inc., priority 2022, published 2025).
# Strand notation (5' to 3'): a small letter for the sugar, then the base; units joined by * are phosphorothioate-linked, units joined directly phosphodiester-linked; [ ] holds rarer units or linkages, { } end groups; capitals alone tell only the bases. m = 2'-O-methyl; r = 2'-OH (RNA)
# What was measured:
# Assay type in all cases: cell-based, human
# [1] = system: CIITA locus; assay: NGS percent editing with SpyCas9 and Nme2 base editor, CIITA (Example 9); details: CIITA BE guide, Day 7
# Description: (§1) Genomic DNA was extracted using QuickExtract™ DNA Extraction Solution (Lucigen, Cat. No. QE09050) according to manufacturer's protocol.
# (§2) To quantitatively determine the efficiency of editing at the target location in the genome, deep sequencing was utilized to identify the presence of insertions, deletions, and substitution introduced by gene editing. PCR primers were designed around the target site within the gene of interest (e.g., HLA-A) and the genomic area of interest was amplified. Primer sequence design was done as is standard in the field.
# (§3) Additional PCR was performed according to the manufacturer's protocols (Illumina) to add chemistry for sequencing. The amplicons were sequenced on an Illumina MiSeq instrument. The reads were aligned to the human reference genome (e.g., hg38) after eliminating those having low quality scores. Reads that overlapped the target region of interest were re-aligned to the local genome sequence to improve the alignment. Then the number of wild type reads versus the number of reads which contain C-to-T mutations, C-to-A/G mutations or indels was calculated. Insertions and deletions were scored in a 20 bp region centered on the predicted Cas9 cleavage site. Indel percentage is defined as the total number of sequencing reads with one or more base inserted or deleted within the 20 bp scoring region divided by the total number of sequencing reads, including wild type. C-to-T mutations or C-to-A/G mutations were scored in a 40 bp region including 10 bp upstream and 10 bp downstream of the 20 bp sgRNA target sequence. The C-to-T editing percentage is defined as the total number of sequencing reads with either one or more C-to-T mutations within the 40 bp region divided by the total number of sequencing reads, including wild type. The percentage of C-to-A/G mutations are calculated similarly.
# (§4) Isolated, cryopreserved T cells were thawed in a water bath and plated at a density of 1×10^6 cells/mL in TCAM media containing CTS OpTmizer T Cell Expansion SFM and T Cell Expansion Supplement (ThermoFisher Cat. A1048501), 1× Penicillin-Streptomycin, 1× Glutamax, 10 mM HEPES, 200 U/mL recombinant human interleukin-2 (Peprotech, Cat. 200-02), 5 ng/mL recombinant human interleukin 7 (Peprotech, Cat. 200-07), and 5 ng/mL recombinant human interleukin 15 (Peprotech, Cat. 200-15) and 2.5% human AB serum (GeminiBio, Cat. 100-512). Technical replicates were prepared using isolated T cells from multiple donors. Data shown is from a selected donor.
# (§5) LNPs were generally prepared as described in Example 1. Lipid nanoparticles in this example were prepared with molar ratios of 35 Lipid A: 47.5 cholesterol: 15 DSPC: 2.5 PEG2k-DMG. LNPs were made with a lipid amine to RNA phosphate (N:P) molar ratio of about 6. LNPs were formulated with a single RNA species or coformulated with multiple RNA species as described in Table 32. LNPs were delivered to T cells in TCAM media containing ApoE3 (Peprotech, Cat. 350-02) as described in Table 32.
# (§6) On Day 1 (e.g., about 24 hours post thaw) cells were harvested and activated with TransAct™ (1:100 dilution, Miltenyi Biotec). LNPs were applied at the doses listed in Table 32 on Day 3 along with 0.5 uM of Compound 1.
# (§7) Beginning on Day 4, cells were split and media refreshed regularly. On Day 7, a portion of cells were harvested for sequencing analysis at TRAC, TRBC1, TRBC2 and CIITA loci. NGS analysis was performed as described in Example 1. Table 33 and FIG. 15 show mean percent editing for these cells.
# [2] = system: AAVS1; assay: GFP insertion at AAVS1 in T cells with SpyCas9 RNP and gapped AAV templates, flow cytometry (Example 6); details: Template OG, day 7 post-editing
# Method: AAVS1 guide RNAs were designed and screened to identify insertion SpyCas9 guides using a series of gapped AAV GFP templates (A, B, C, D, OG) each designed for a subset of the guide RNAs. Insertion efficacy in T cells was examined by assessing GFP expression by flow cytometry. The percentage of T cells positive for green fluorescent protein (“% GFP+”) was assayed by flow cytometry, following AAVS1 editing by mRNA and AAV delivery.
# Healthy human donor apheresis was obtained commercially (Hemacare) from two donors (#110042863 and #110040377) and cells were washed and resuspended in MACS Buffer containing 2 mM EDTA and 0.5% Fetal Bovine Serum (FBS) in PBS. Cells were washed twice by centrifugation followed by CD3 negative selection using Easy Sep Human T Cell Isolation Kit (Stemcell, Cat. 100-0695) and separated using Easy Sep Magnets (Stemcell, Cat.18000). T cells were aliquoted and cryopreserved for future use in Cryostor® CS10 (StemCell Technologies Cat. 07930).
# AAVS1 guide RNAs were assessed for insertion efficacy in T cells by assessing GFP expression by flow cytometry. The percentage of T cells positive for green fluorescent protein (“% GFP+”) was assayed by flow cytometry, following AAVS1 editing by mRNA and AAV delivery.
# AAVS1 targeting sgRNAs corresponding to the flanking homology regions of Gap Templates A, B, C, D, & OG (SEQ ID NOs: 299-303) were removed from their storage plates and denatured for 2 minutes at 95° C. before cooling at room temperature for 10 minutes. RNP mixture of 20 μM sgRNA and 10 μM Cas9-NLS protein (SEQ ID NO: 296) was prepared and incubated at 25° C. for 10 minutes. 2.5 μL of RNP mixture was combined with 250,000 cells in […] P3 electroporation Buffer (Lonza). 22 μL of RNP/cell mix was transferred to the corresponding wells of a Lonza shuttle 96-well electroporation plate. Cells were electroporated in duplicate with the manufacturer's pulse code. T cell media described above without any cytokines was added to the cells immediately post electroporation. T cells were rested for 10 minutes at 37° C. Gap Template AAVs were prepared in 48 well plates (Corning, Cat.353078)) with T cell media described above containing 2× cytokines, 400 U/mL recombinant human interleukin-2 (Peprotech, Cat. 200-02), 10 ng/ml recombinant human interleukin 7 (Peprotech, Cat. 200-07), and 10 ng/ml recombinant human interleukin 15 (Peprotech, Cat. 200-15) cytokines. The multiplicity of infection (MOI) of AAVs was 3×10^^5. AAVs were added to the T cells within 15 minutes post electroporation and incubated for 48 hours at 37° C. AAV-6 vectors encoded AAVS1 Template A, B, C, D or OG. Two days post-electroporation, cells were split 1:2 in 48 well plates replenished with T cell media with 1× cytokines as described above. sgRNAs were tested each with AAV constructs and gapped template.
# On day 7 post-editing, cells were phenotyped by flow cytometry to determine GFP expression to confirm integration of AAV at their GAP template site. Briefly, T cells were washed in FACS buffer containing 2 mM EDTA (Invitrogen, Cat.15575020) and 1% FBS in PBS followed by re-suspending in FACS buffer containing 1:10,000 dilution of DAPI (Biolegend, Cat.422801) nuclear stain. Cells were then processed on a Cytoflex flow cytometer (Beckman Coulter) and analyzed using the FlowJo software package. T cells were gated based on size, shape, viability, and GFP expression. Values that were not determined by the flow cytometer were denoted as “ND”. Table 18 and FIGS. 8A-8B show mean percentage of T cells positive for GFP expression.
# [3] = system: TRBC1 locus; assay: NGS percent editing with SpyCas9 and Nme2 base editor, TRBC1 (Example 9); details: TRBC1 BE guide, Day 7
# Description: as §1, §2, §3, §4, §5, §6, §7
molecule,measurement,setting,value
"G026584 (nucleic acid, chemical modifications, further chemistry not given here) guide: UCAAAGUACCCUACAGGAGGACCAGUUGUAGCUCCCUGAAACCGUUGCUACAAUAAGGCCGUCGAAAGAUGUGCCGCAACGCUCUGCCUUCUGGCAUCGUU","Mean percent editing, C to A/G",[1]; BE mRNA 0.5 ug/mL,1.2%
same,"Mean percent editing, C to T",[1]; BE mRNA 0.5 ug/mL,91.8%
same,"Mean percent editing, Indels",[1]; BE mRNA 0.5 ug/mL,0.9%
same,"Mean percent editing, C to A/G",[1]; BE mRNA 1.0 ug/mL,1.4%
same,"Mean percent editing, C to T",[1]; BE mRNA 1.0 ug/mL,91.6%
same,"Mean percent editing, Indels",[1]; BE mRNA 1.0 ug/mL,0.6%
"G013543: AAVS1 SpyCas9 guide RNA, guide sequence SEQ ID NO: 257, chr19:55115755-55115775 (nucleic acid) guide: mU*mG*mU*rCrCrCrUrArGrUrGrGrCrCrCrCrArCrUrGrGrUrUrUrUrArGrAmGmCmUmAmGmAmAmAmUmAmGmCrArArGrUrUrArArArArUrArArGrGrCrUrArGrUrCrCrGrUrUrArUrCrAmAmCmUmUmGmAmAmAmAmAmGmUmGmGmCmAmCmCmGmAmGmUmCmGmGmUmGmCmU*mU*mU*mU",Mean percentage of T cells positive for GFP expression,[2]; Donor 1,65.25%
same,Mean percentage of T cells positive for GFP expression,[2]; Donor 2,64.40%
"G028986: TRBC sgRNA for Nme2 Base Editor (nucleic acid, chemical modifications; listed as RNA; modified_base 1: mod_base = OTHER; note = 2'-O-methyl modified nucleotide with phosphorothioate linkage; modified_base 2: mod_base = OTHER; modified_base 3: mod_base = OTHE, TRBC sgRNA for Nme2 Base Editor) guide: GUGUCCUACCAGCAAGGGGUCCUGGUUGUAGCUCCCUGAAACCGUUGCUACAAUAAGGCCGUCGAAAGAUGUGCCGCAACGCUCUGCCUUCUGGCAUCGUU","Mean percent editing, C to A/G",[3]; BE mRNA 0.5 ug/mL,1.0%
same,"Mean percent editing, C to T",[3]; BE mRNA 0.5 ug/mL,94.4%
same,"Mean percent editing, Indels",[3]; BE mRNA 0.5 ug/mL,0.3%
same,"Mean percent editing, C to A/G",[3]; BE mRNA 1.0 ug/mL,0.9%
same,"Mean percent editing, C to T",[3]; BE mRNA 1.0 ug/mL,93.3%
same,"Mean percent editing, Indels",[3]; BE mRNA 1.0 ug/mL,1.0%
